Data published in the supplement of paper PMC10065799, “High-throughput profiling of sequence recognition by tyrosine kinases and SH2 domains using bacterial peptide display” (eLife, 2023).

Biological target: FGFR3 (UniProt P22607)
Assay: phosphorylation enrichment, bacterial display (enrichment ratio); higher = better substrate or ligand; peptides without Tyr show the background
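Note: 11-residue human phosphosite peptides and single-mutation variants displayed on the E. coli surface, counted by deep sequencing, each peptide's frequency after selection divided by its frequency in the unselected input library; frequency after pTyr selection over input frequency; kinase dosed for 20-30% of maximal phosphorylation in three min.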

Chain of FGFR3 (P22607 whole entry, looked up): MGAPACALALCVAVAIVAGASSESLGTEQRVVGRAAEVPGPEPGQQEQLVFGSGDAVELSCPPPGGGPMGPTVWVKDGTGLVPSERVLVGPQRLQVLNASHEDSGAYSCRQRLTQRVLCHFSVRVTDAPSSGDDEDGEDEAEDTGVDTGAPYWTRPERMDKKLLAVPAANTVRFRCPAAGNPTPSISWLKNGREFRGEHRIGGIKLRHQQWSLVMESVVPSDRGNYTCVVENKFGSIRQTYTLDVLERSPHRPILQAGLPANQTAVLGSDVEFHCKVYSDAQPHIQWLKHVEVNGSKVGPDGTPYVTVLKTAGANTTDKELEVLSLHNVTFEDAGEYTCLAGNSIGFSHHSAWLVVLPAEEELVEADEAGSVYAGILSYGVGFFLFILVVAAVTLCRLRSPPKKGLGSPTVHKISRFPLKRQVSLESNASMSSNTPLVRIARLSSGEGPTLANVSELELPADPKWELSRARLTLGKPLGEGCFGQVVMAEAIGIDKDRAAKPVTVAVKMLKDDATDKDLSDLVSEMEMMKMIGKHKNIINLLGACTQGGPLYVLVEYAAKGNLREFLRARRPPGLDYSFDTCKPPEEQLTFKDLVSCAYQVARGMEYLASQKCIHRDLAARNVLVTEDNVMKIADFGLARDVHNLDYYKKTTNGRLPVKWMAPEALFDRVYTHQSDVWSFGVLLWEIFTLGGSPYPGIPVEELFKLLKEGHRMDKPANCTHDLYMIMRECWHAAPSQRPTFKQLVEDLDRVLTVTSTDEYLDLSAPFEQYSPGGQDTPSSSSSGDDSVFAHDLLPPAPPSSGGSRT

Compared with KWRGQYDVANK [BTK_Y425_I429N], VNTMLYEKFTY [TEK_Y1108_T1106M] is higher in phosphorylation enrichment: 0.57 for the first, 0.902 for the second.

Going from VDLSKYITTIA [FAS_Y232] to FEPWVYSFSYE [PRKDC_Y647], the phosphorylation enrichment rises from 0.452 to 1.03.

First: RPSGRYPVARR [SHANK3_Y1569]
Second: ISDDNYGRIRL [ARCN1_Y310_K309N]
The phosphorylation enrichment of the first is higher: 1.05 for the first, 0.428 for the second.

Compared with NFYEYYVDDPL [GCHFR_Y48_P53L], KSPDSYQKILF [ATM_Y1415_L1420F] is lower in phosphorylation enrichment: 5.52 for the first, 0.427 for the second.

Going from KTNVSYCGALD [CACNB4_Y103] to SVTCTYSPAFN [TP53_Y126_L130F], the phosphorylation enrichment rises from 0.643 to 0.897.

Compared with ERLWDCGMSSS [F8_Y1728_Y1728C], INSLKYAYNVS [EIF2B5_Y583_I587V] is lower in phosphorylation enrichment: 0.537 for the first, 0.525 for the second.

Compared with PYSEPYADYGG [APBA1_Y187], MIRSTYALGGL [CPS1_Y590_A589T] is lower in phosphorylation enrichment: 2.23 for the first, 0.486 for the second.

Compared with LEITWYPFDVE [RIPOR2_Y316], GRFCGYKSKHG [EPHA3_Y570] is lower in phosphorylation enrichment: 1.55 for the first, 0.638 for the second.

First: VSTAVYKRFPS [BEST1_Y148]
Second: TENAGYYFQVS
The phosphorylation enrichment of the first is lower: 0.463 for the first, 1.76 for the second.

Going from EAIMTYVSSFY [ACTN4_Y260_K255E] to NPQKSYFIHLY [WAS_Y83_R86H], the phosphorylation enrichment rises from 0.693 to 0.782.

Going from VITDFYVDMKF [MPP4_Y567_YF] to FIATQYSLCPR [LBR_Y166_R169C_YF], the phosphorylation enrichment falls from 1.36 to 0.762.

Compared with QLRPGYIPIPV [BAG3_Y93], FADIAYIYRHG [PAH_Y166_N167I] is lower in phosphorylation enrichment: 1.09 for the first, 0.583 for the second.

Going from IGGHAYGDQYR [IDH1_Y135_R132G] to CFTGKYTLPPG [HSPB1_Y142_R140G], the phosphorylation enrichment rises from 0.382 to 0.75.

First: VAVTKYCKEEL [ATP7B_Y1078]
Second: RSACTYLASHL [PLK3_Y615]
The phosphorylation enrichment of the first is lower: 0.776 for the first, 0.792 for the second.

First: TSSAGYRAAEG [COL6A3_Y543]
Second: ARQEEYSAMRD [KRAS_Y64_G60R]
The phosphorylation enrichment of the first is higher: 0.641 for the first, 0.584 for the second.

First: TRYDEYLEVTK [MAP1A_Y2217_H2214Y]
Second: PLQNTYNFNVL [SLC4A1_Y553_K551N_YF]
The phosphorylation enrichment of the first is higher: 0.872 for the first, 0.616 for the second.

Sequence RLLRGYDQFAY [HLA-C_Y137_S140F] has a phosphorylation enrichment of 0.617.

Test system: c-Src
Assay: as above

First: KWRGQYDVANK [BTK_Y425_I429N]
Second: VNTMLYEKFTY [TEK_Y1108_T1106M]
The phosphorylation enrichment of the first is lower: 0.376 for the first, 5.53 for the second.

First: VDLSKYITTIA [FAS_Y232]
Second: FEPWVYSFSYE [PRKDC_Y647]
The phosphorylation enrichment of the first is lower: 0.424 for the first, 5.83 for the second.

Compared with RPSGRYPVARR [SHANK3_Y1569], ISDDNYGRIRL [ARCN1_Y310_K309N] is higher in phosphorylation enrichment: 0.782 for the first, 0.885 for the second.

Compared with NFYEYYVDDPL [GCHFR_Y48_P53L], KSPDSYQKILF [ATM_Y1415_L1420F] is lower in phosphorylation enrichment: 4.67 for the first, 0.632 for the second.

Compared with KTNVSYCGALD [CACNB4_Y103], SVTCTYSPAFN [TP53_Y126_L130F] is higher in phosphorylation enrichment: 0.469 for the first, 0.66 for the second.

First: ERLWDCGMSSS [F8_Y1728_Y1728C]
Second: INSLKYAYNVS [EIF2B5_Y583_I587V]
The phosphorylation enrichment of the first is lower: 0.388 for the first, 0.6 for the second.

First: PYSEPYADYGG [APBA1_Y187]
Second: MIRSTYALGGL [CPS1_Y590_A589T]
The phosphorylation enrichment of the first is higher: 4.44 for the first, 0.546 for the second.

Compared with LEITWYPFDVE [RIPOR2_Y316], GRFCGYKSKHG [EPHA3_Y570] is lower in phosphorylation enrichment: 0.704 for the first, 0.363 for the second.

Going from VSTAVYKRFPS [BEST1_Y148] to TENAGYYFQVS, the phosphorylation enrichment rises from 0.395 to 0.509.

Going from EAIMTYVSSFY [ACTN4_Y260_K255E] to NPQKSYFIHLY [WAS_Y83_R86H], the phosphorylation enrichment falls from 0.855 to 0.407.

Going from VITDFYVDMKF [MPP4_Y567_YF] to FIATQYSLCPR [LBR_Y166_R169C_YF], the phosphorylation enrichment rises from 0.503 to 0.683.

First: QLRPGYIPIPV [BAG3_Y93]
Second: FADIAYIYRHG [PAH_Y166_N167I]
The phosphorylation enrichment of the first is higher: 0.734 for the first, 0.638 for the second.

First: IGGHAYGDQYR [IDH1_Y135_R132G]
Second: CFTGKYTLPPG [HSPB1_Y142_R140G]
The phosphorylation enrichment of the first is lower: 0.36 for the first, 0.429 for the second.

Compared with VAVTKYCKEEL [ATP7B_Y1078], RSACTYLASHL [PLK3_Y615] is lower in phosphorylation enrichment: 0.477 for the first, 0.417 for the second.

Compared with TSSAGYRAAEG [COL6A3_Y543], ARQEEYSAMRD [KRAS_Y64_G60R] is higher in phosphorylation enrichment: 0.316 for the first, 0.497 for the second.

Going from TRYDEYLEVTK [MAP1A_Y2217_H2214Y] to PLQNTYNFNVL [SLC4A1_Y553_K551N_YF], the phosphorylation enrichment rises from 0.538 to 2.52.

RLLRGYDQFAY [HLA-C_Y137_S140F] showed a phosphorylation enrichment of 0.514.

Biological target: MERTK (UniProt Q12866)
Assay: as above

Chain of MERTK (Q12866 whole entry, looked up): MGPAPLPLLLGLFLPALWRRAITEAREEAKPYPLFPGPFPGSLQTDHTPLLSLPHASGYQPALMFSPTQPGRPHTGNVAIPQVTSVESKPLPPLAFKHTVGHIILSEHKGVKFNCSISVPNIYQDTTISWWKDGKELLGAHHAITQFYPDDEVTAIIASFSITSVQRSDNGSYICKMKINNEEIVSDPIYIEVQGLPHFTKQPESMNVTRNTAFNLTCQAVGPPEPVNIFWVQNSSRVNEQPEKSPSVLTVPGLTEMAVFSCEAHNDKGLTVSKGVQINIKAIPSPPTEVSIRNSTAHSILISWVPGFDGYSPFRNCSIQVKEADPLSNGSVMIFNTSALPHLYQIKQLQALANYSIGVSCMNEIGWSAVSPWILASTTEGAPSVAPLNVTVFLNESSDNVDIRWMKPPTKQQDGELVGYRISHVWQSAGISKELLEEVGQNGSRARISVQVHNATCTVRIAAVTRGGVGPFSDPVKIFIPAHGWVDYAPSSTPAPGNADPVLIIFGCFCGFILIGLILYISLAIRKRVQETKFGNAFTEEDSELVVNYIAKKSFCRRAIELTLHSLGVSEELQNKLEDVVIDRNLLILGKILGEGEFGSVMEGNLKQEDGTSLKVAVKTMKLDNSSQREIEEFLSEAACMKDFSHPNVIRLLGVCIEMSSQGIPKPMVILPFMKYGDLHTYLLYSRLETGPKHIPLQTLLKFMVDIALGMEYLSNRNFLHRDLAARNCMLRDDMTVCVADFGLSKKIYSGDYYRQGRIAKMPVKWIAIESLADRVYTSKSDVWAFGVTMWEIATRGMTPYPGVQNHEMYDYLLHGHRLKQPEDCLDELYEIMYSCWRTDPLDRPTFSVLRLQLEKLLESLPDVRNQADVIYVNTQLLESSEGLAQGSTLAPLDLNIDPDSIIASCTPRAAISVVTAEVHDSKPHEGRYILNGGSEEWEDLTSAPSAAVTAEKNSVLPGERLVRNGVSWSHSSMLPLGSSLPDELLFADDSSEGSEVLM

Going from KWRGQYDVANK [BTK_Y425_I429N] to VNTMLYEKFTY [TEK_Y1108_T1106M], the phosphorylation enrichment rises from 0.387 to 7.49.

Going from VDLSKYITTIA [FAS_Y232] to FEPWVYSFSYE [PRKDC_Y647], the phosphorylation enrichment rises from 0.426 to 1.22.

Going from RPSGRYPVARR [SHANK3_Y1569] to ISDDNYGRIRL [ARCN1_Y310_K309N], the phosphorylation enrichment falls from 0.664 to 0.344.

Going from NFYEYYVDDPL [GCHFR_Y48_P53L] to KSPDSYQKILF [ATM_Y1415_L1420F], the phosphorylation enrichment falls from 7.76 to 0.585.

Compared with KTNVSYCGALD [CACNB4_Y103], SVTCTYSPAFN [TP53_Y126_L130F] is higher in phosphorylation enrichment: 0.389 for the first, 0.418 for the second.

Going from ERLWDCGMSSS [F8_Y1728_Y1728C] to INSLKYAYNVS [EIF2B5_Y583_I587V], the phosphorylation enrichment rises from 0.387 to 0.443.

Compared with PYSEPYADYGG [APBA1_Y187], MIRSTYALGGL [CPS1_Y590_A589T] is lower in phosphorylation enrichment: 0.911 for the first, 0.488 for the second.

Compared with LEITWYPFDVE [RIPOR2_Y316], GRFCGYKSKHG [EPHA3_Y570] is lower in phosphorylation enrichment: 0.461 for the first, 0.376 for the second.

First: VSTAVYKRFPS [BEST1_Y148]
Second: TENAGYYFQVS
The phosphorylation enrichment of the first is lower: 0.526 for the first, 1.29 for the second.

First: EAIMTYVSSFY [ACTN4_Y260_K255E]
Second: NPQKSYFIHLY [WAS_Y83_R86H]
The phosphorylation enrichment of the first is higher: 0.457 for the first, 0.424 for the second.

Compared with VITDFYVDMKF [MPP4_Y567_YF], FIATQYSLCPR [LBR_Y166_R169C_YF] is higher in phosphorylation enrichment: 0.52 for the first, 0.752 for the second.

First: QLRPGYIPIPV [BAG3_Y93]
Second: FADIAYIYRHG [PAH_Y166_N167I]
The phosphorylation enrichment of the first is higher: 0.772 for the first, 0.416 for the second.

Compared with IGGHAYGDQYR [IDH1_Y135_R132G], CFTGKYTLPPG [HSPB1_Y142_R140G] is higher in phosphorylation enrichment: 0.357 for the first, 0.767 for the second.

First: VAVTKYCKEEL [ATP7B_Y1078]
Second: RSACTYLASHL [PLK3_Y615]
The phosphorylation enrichment of the first is lower: 0.37 for the first, 0.433 for the second.

Compared with TSSAGYRAAEG [COL6A3_Y543], ARQEEYSAMRD [KRAS_Y64_G60R] is higher in phosphorylation enrichment: 0.365 for the first, 0.497 for the second.

Going from TRYDEYLEVTK [MAP1A_Y2217_H2214Y] to PLQNTYNFNVL [SLC4A1_Y553_K551N_YF], the phosphorylation enrichment rises from 0.425 to 0.634.

With RLLRGYDQFAY [HLA-C_Y137_S140F] the phosphorylation enrichment was 0.433.

Biological target: Jak2 (UniProt O60674)
Assay: as above

Chain of Jak2 (O60674 whole entry, looked up): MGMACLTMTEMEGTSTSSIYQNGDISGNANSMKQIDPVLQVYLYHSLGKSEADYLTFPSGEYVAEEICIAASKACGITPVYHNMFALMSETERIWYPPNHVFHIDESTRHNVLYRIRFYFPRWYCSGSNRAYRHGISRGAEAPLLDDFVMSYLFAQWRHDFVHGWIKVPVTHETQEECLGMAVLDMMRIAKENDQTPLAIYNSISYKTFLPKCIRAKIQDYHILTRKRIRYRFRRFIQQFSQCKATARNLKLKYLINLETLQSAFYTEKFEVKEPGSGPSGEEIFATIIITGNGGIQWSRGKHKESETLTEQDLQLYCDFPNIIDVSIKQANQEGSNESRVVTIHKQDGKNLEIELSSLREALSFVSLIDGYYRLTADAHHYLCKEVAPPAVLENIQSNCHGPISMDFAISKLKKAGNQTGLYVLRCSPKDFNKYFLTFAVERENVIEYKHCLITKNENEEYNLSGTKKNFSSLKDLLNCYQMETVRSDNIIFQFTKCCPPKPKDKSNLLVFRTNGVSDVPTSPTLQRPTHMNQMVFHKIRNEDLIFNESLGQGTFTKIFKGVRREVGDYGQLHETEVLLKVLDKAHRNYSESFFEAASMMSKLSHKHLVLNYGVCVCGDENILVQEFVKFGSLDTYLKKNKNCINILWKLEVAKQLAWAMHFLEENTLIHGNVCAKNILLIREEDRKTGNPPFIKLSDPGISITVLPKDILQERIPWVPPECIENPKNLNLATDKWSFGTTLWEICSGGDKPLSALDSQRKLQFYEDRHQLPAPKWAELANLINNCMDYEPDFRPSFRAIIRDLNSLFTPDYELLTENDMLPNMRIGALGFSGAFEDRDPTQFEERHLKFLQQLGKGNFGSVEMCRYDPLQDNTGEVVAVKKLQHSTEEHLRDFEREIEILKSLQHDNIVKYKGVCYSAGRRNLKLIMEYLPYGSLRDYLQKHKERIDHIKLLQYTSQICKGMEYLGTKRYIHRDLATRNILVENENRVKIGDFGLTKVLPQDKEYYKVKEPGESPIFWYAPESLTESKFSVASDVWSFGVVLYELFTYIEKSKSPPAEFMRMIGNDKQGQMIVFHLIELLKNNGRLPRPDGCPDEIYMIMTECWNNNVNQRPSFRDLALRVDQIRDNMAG

Compared with KWRGQYDVANK [BTK_Y425_I429N], VNTMLYEKFTY [TEK_Y1108_T1106M] is higher in phosphorylation enrichment: 0.6 for the first, 0.811 for the second.

Compared with VDLSKYITTIA [FAS_Y232], FEPWVYSFSYE [PRKDC_Y647] is higher in phosphorylation enrichment: 0.67 for the first, 1.3 for the second.

First: RPSGRYPVARR [SHANK3_Y1569]
Second: ISDDNYGRIRL [ARCN1_Y310_K309N]
The phosphorylation enrichment of the first is higher: 0.619 for the first, 0.525 for the second.

First: NFYEYYVDDPL [GCHFR_Y48_P53L]
Second: KSPDSYQKILF [ATM_Y1415_L1420F]
The phosphorylation enrichment of the first is higher: 1.64 for the first, 0.6 for the second.

Going from KTNVSYCGALD [CACNB4_Y103] to SVTCTYSPAFN [TP53_Y126_L130F], the phosphorylation enrichment rises from 0.754 to 1.31.

Compared with ERLWDCGMSSS [F8_Y1728_Y1728C], INSLKYAYNVS [EIF2B5_Y583_I587V] is lower in phosphorylation enrichment: 0.74 for the first, 0.571 for the second.

Going from PYSEPYADYGG [APBA1_Y187] to MIRSTYALGGL [CPS1_Y590_A589T], the phosphorylation enrichment falls from 1.56 to 0.73.

Compared with LEITWYPFDVE [RIPOR2_Y316], GRFCGYKSKHG [EPHA3_Y570] is lower in phosphorylation enrichment: 2.3 for the first, 0.726 for the second.

Compared with VSTAVYKRFPS [BEST1_Y148], TENAGYYFQVS is higher in phosphorylation enrichment: 0.593 for the first, 1.99 for the second.

First: EAIMTYVSSFY [ACTN4_Y260_K255E]
Second: NPQKSYFIHLY [WAS_Y83_R86H]
The phosphorylation enrichment of the first is lower: 1.06 for the first, 1.18 for the second.

Compared with VITDFYVDMKF [MPP4_Y567_YF], FIATQYSLCPR [LBR_Y166_R169C_YF] is lower in phosphorylation enrichment: 1.27 for the first, 1.14 for the second.

First: QLRPGYIPIPV [BAG3_Y93]
Second: FADIAYIYRHG [PAH_Y166_N167I]
The phosphorylation enrichment of the first is higher: 1.08 for the first, 1.02 for the second.

First: IGGHAYGDQYR [IDH1_Y135_R132G]
Second: CFTGKYTLPPG [HSPB1_Y142_R140G]
The phosphorylation enrichment of the first is lower: 0.431 for the first, 0.908 for the second.

Compared with VAVTKYCKEEL [ATP7B_Y1078], RSACTYLASHL [PLK3_Y615] is lower in phosphorylation enrichment: 0.844 for the first, 0.575 for the second.

First: TSSAGYRAAEG [COL6A3_Y543]
Second: ARQEEYSAMRD [KRAS_Y64_G60R]
The phosphorylation enrichment of the first is lower: 0.365 for the first, 0.896 for the second.

Going from TRYDEYLEVTK [MAP1A_Y2217_H2214Y] to PLQNTYNFNVL [SLC4A1_Y553_K551N_YF], the phosphorylation enrichment falls from 1.16 to 0.959.

RLLRGYDQFAY [HLA-C_Y137_S140F] was tested, and the phosphorylation enrichment was 0.567.
